Experimental data from paper PMC9205196.

Tests used:
[1] = biological target: SDC1_(37): deglycosylated murine syndecan-1 ectodomain with p-propargyltyrosine at residue 37 (mouse) (UniProt P18828); assay: ELISA
[2] = biological target: SDC1_(37HEP): murine syndecan-1 ectodomain with heparin conjugated at residue 37 (mouse) (UniProt P18828); assay: ELISA
[3] = biological target: SDC1_(47HEP): murine syndecan-1 ectodomain with heparin conjugated at residue 47 (mouse) (UniProt P18828); assay: ELISA
[4] = biological target: SDC1_(47HS): murine syndecan-1 ectodomain with heparan sulfate conjugated at residue 47 (mouse) (UniProt P18828); assay: ELISA
FGFR1, biotinylated = FGFR1, biotinylated (UniProt P11362); assay: AlphaScreen or HTRF
[5] = biological target: Recombinant human FGF2 (fibroblast growth factor-2), biotinylated (human); assay: AlphaScreen or HTRF
[6] = biological target: Vitronectin (VN), biotinylated (UniProt P04004); assay: AlphaScreen or HTRF

| Substance | EC50 [1] [nM] | EC50 [2] [nM] | EC50 [3] [nM] | EC50 [4] [nM] | EC50 (FGFR1, biotinylated) [nM] | EC50 of ternary complex formation with soluble non-tagged FGF2 (FGFR1, biotinylated) [nM] | EC50 [5] [nM] | EC50 [6] [nM] |
| --- | --- | --- | --- | --- | --- | --- | --- | --- |
| Recombinant human αvβ3 integrin (from UniProt P06756-1 31-992; P05106 27-718) (complex) | 100 | 10 | 5 | 40 | – | – | – | – |
| SDC1_(37): deglycosylated murine syndecan-1 ectodomain with p-propargyltyrosine at residue 37 (from UniProt P18828 23-255) (domain or fragment) | – | – | – | – | > 20 | > 20 | > 100 | > 100 |
| SDC1_(37HEP): murine syndecan-1 ectodomain with heparin conjugated at residue 37 (from UniProt P18828 23-255) (domain or fragment) | – | – | – | – | 0.3 | 0.007 | 0.4 | 1 |
| SDC1_(47HEP): murine syndecan-1 ectodomain with heparin conjugated at residue 47 (from UniProt P18828 23-255) (domain or fragment) | – | – | – | – | 0.2 | 0.007 | 0.3 | – |
